Assays:
[1] = molecular target: T1, IGF2BP3 (recombinant GST fusion) (UniProt O00425 1-579); test: pull-down; EMSA: 10 mM HEPES pH 7.3, 20 mM KCl, 1 mM MgCl2, 1 mM DTT; competition: 150 mM NaCl, 20 mM Tris-HCl pH 7.5, 1.5 mM MgCl2, 1 mM DTT, 10% glycerol, 4 °C; pull-down at 4 °C, wash 20 mM Tris-HCl pH 7.5, 1 mM EDTA, 450 mM NaCl; conditions: protein: recombinant; tags: GST (pGEX-6P-1); label: 3' biotin
[2] = molecular target: T1, IGF2BP3 (recombinant GST fusion); test: competition; against biotin-circITGB6 (1 uM), protein 1 uM; EMSA: 10 mM HEPES pH 7.3, 20 mM KCl, 1 mM MgCl2, 1 mM DTT; competition: 150 mM NaCl, 20 mM Tris-HCl pH 7.5, 1.5 mM MgCl2, 1 mM DTT, 10% glycerol, 4 °C; pull-down at 4 °C, wash 20 mM Tris-HCl pH 7.5, 1 mM EDTA, 450 mM NaCl; conditions: tags: GST (pGEX-6P-1)
[3] = molecular target: T1, IGF2BP3 (recombinant GST fusion); test: competition; displaces biotin-circITGB6 (1 uM), protein 1 uM; EMSA: 10 mM HEPES pH 7.3, 20 mM KCl, 1 mM MgCl2, 1 mM DTT; competition: 150 mM NaCl, 20 mM Tris-HCl pH 7.5, 1.5 mM MgCl2, 1 mM DTT, 10% glycerol, 4 °C; pull-down at 4 °C, wash 20 mM Tris-HCl pH 7.5, 1 mM EDTA, 450 mM NaCl; conditions: tags: GST (pGEX-6P-1)

T1 sequence (O00425 whole entry, the tested form may be a part): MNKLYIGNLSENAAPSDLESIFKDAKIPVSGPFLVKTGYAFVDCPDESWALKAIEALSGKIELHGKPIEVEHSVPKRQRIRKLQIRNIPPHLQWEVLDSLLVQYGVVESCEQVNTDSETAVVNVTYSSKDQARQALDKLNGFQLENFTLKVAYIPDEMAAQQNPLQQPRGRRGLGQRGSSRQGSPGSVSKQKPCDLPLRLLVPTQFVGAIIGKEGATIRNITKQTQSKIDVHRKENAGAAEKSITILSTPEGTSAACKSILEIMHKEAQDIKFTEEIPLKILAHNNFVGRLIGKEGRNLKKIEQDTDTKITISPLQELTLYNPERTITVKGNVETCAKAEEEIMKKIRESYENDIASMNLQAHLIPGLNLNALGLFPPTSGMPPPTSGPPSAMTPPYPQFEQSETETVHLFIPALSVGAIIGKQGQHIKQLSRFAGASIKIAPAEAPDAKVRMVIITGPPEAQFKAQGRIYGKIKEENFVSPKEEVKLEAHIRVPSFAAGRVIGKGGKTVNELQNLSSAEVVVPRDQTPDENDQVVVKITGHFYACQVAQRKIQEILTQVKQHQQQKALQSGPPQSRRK

**Q.** Does ACUCUAAACGGAGCUGCAUUGAGUGCCACC (ssRNA) [M1 (M1-WT) probe] bind [1]?
**A.** binds

**Q.** Does ACUAGCUGGUGCGACCAUCAGUGAAGAAGA (ssRNA) [M2 competitor, unlabeled] bind [2]?
**A.** no binding

**Q.** Does ACUCUAAACGGAGCUGCAUUGAGUGCCACC (ssRNA) [M1 competitor, unlabeled] bind [3]?
**A.** binds

From article PMC10613289, “A circular RNA activated by TGFβ promotes tumor metastasis through enhancing IGF2BP3-mediated PDPN mRNA stability”
